The values that follow come from US20230279406A1.

Common to all, as to experiment: cell-based or functional assay
Experiment [1] has as its target T1, CD246 PV1-GAI-L1-RfxCas13d-566C-NLS-BGHpA.
T1 sequence: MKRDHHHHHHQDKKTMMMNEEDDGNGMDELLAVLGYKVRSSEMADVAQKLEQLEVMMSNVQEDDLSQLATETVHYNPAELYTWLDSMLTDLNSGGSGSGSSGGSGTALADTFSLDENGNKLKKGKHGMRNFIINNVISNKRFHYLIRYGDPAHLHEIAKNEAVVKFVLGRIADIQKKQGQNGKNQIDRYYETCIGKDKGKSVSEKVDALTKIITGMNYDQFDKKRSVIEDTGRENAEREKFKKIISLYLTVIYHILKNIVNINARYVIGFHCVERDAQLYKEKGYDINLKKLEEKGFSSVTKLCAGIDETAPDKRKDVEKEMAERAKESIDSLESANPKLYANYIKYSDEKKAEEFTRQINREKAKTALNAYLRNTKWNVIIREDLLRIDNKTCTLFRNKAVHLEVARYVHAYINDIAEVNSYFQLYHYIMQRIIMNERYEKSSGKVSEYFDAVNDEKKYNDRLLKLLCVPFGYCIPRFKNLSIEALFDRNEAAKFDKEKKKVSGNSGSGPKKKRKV

Experiment [2] concerns the target CD92 PV1-CaffVHH-L1-iCre-271C-NLS-BGHpA.
Experiment [3] deals with T2, CD374 PV1-RfxCas13d-560C-NLS-BGHpA.
T2 sequence: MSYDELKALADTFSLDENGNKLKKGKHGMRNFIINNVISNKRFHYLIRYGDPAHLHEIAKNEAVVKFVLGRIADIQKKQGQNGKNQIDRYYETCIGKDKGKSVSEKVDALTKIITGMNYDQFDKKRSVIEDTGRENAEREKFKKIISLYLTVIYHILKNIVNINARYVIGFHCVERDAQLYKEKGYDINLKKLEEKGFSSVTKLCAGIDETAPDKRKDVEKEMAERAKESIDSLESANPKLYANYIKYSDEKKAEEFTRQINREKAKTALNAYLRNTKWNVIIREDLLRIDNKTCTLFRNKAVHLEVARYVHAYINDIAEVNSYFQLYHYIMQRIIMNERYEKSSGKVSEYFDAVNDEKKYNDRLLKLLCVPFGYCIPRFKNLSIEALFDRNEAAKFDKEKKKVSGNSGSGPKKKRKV

For experiment [4], the target named is T3, CD400 PV1-GAI-L1-RfxCas13d-264C-NLS-BGHpA.
T3 sequence: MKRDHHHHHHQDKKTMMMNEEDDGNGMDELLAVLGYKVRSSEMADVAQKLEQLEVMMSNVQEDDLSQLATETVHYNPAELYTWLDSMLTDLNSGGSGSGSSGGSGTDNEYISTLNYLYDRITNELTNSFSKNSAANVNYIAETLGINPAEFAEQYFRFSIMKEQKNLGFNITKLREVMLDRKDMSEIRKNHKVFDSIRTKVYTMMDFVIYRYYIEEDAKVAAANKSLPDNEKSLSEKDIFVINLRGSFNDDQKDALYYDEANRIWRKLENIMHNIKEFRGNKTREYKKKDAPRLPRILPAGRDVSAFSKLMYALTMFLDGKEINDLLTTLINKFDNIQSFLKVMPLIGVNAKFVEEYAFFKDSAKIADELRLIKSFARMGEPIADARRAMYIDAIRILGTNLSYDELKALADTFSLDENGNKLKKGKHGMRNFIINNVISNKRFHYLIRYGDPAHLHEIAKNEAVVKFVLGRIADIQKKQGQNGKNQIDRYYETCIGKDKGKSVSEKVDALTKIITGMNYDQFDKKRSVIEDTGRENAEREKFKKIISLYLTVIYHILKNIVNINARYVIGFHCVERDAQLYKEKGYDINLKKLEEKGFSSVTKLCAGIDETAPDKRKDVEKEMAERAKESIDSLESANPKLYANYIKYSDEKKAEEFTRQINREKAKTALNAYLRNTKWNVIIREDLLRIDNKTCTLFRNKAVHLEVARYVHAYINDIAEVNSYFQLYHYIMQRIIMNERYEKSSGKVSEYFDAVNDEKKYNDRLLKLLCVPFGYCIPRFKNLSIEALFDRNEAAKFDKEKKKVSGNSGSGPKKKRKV

Experiment [5] has as its target T4, CD244 PV1-GAI-L1-RfxCas13d-560C-NLS-BGHpA.
T4 sequence: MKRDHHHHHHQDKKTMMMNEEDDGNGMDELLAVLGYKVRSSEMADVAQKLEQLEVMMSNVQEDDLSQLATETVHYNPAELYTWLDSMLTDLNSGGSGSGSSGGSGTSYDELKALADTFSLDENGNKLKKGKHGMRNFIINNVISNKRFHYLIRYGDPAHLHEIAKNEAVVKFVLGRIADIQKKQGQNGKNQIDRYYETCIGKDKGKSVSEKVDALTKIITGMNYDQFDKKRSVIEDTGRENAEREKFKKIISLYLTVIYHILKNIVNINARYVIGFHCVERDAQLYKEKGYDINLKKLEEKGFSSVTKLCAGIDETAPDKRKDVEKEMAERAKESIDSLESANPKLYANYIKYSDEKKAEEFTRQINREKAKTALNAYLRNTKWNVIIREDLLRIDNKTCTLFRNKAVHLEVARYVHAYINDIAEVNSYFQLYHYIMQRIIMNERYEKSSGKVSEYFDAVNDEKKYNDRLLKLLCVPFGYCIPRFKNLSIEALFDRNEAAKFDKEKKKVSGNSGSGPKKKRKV

CD92 PV1-CaffVHH-L1-iCre-271C-NLS-BGHpA, sequence (chain, as listed by the source): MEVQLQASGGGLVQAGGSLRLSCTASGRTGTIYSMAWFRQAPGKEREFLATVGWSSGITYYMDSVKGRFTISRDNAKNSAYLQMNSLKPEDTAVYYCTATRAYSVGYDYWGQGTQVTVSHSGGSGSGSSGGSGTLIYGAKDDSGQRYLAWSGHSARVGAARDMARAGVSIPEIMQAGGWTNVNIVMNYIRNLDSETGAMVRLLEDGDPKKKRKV

B1: CD245 PV1-RfxCas13d-N565-L1-GID-NLS-BGHpA (protein)
chain: MIEKKKSFAKGMGVKSTLVSGSKVYMTTFAEGSDARLEKIVEGDSIRSVNEGEAFSAEMADKNAGYKIGNAKFSHPKGYAVVANNPLYTGPVQQDMLGLKETLEKRYFGESADGNDNICIQVIHNILDIEKILAEYITNAAYAVNNISGLDKDIIGFGKFSTVYTYDEFKDPEHHRAAFNNNDKLINAIKAQYDEFDNFLDNPRLGYFGQAFFSKEGRNYIINYGNECYDILALLSGLRHWVVHNNEEESRISRTWLYNLDKNLDNEYISTLNYLYDRITNELTNSFSKNSAANVNYIAETLGINPAEFAEQYFRFSIMKEQKNLGFNITKLREVMLDRKDMSEIRKNHKVFDSIRTKVYTMMDFVIYRYYIEEDAKVAAANKSLPDNEKSLSEKDIFVINLRGSFNDDQKDALYYDEANRIWRKLENIMHNIKEFRGNKTREYKKKDAPRLPRILPAGRDVSAFSKLMYALTMFLDGKEINDLLTTLINKFDNIQSFLKVMPLIGVNAKFVEEYAFFKDSAKIADELRLIKSFARMGEPIADARRAMYIDAIRILGTNLSYDELKSGGSGSGSSGGSGTMAASDEVNLIESRTVVPLNTWVLISNFKVAYNILRRPDGTFNRHLAEYLDRKVTANANPVDGVFSFDVLIDRRINLLSRVYRPAYADQEQPPSILDLEKPVDGDIVPVILFFHGGSFAHSSANSAIYDTLCRRLVGLCKCVVVSVNYRRAPENPYPCAYDDGWIALNWVNSRSWLKSKKDSKVHIFLAGDSSGGNIAHNVALRAGESGIDVLGNILLNPMFGGNERTESEKSLDGKYFVTVRDRDWYWKAFLPEGEDREHPACNPFSPRGKSLEGVSFPKSLVVVAGLDLIRDWQLAYAEGLKKAGQEVKLMHLEKATVGFYLLPNNNHFHNVMDEISAFVNAECPKKKRKV
Take B1: in experiment [1], the mCherry knockdown with gRNA and gibberellin (drug-induced) was more than 75%; the mCherry knockdown with gRNA, without gibberellin (basal) lay in the range of 10 to 20%.

B2: CD91 PV1-iCre-N270-L1-CaffVHH-NLS-BGHpA (protein)
chain: MSNLLTVHQNLPALPVDATSDEVRKNLMDMFRDRQAFSEHTWKMLLSVCRSWAAWCKLNNRKWFPAEPEDVRDYLLYLQARGLAVKTIQQHLGQLNMLHRRSGLPRPSDSNAVSLVMRRIRKENVDAGERAKQALAFERTDFDQVRSLMENSDRCQDIRNLAFLGIAYNTLLRIAEIARIRVKDISRTDGGRMLIHIGRTKTLVSTAGVEKALSLGVTKLVERWISVSGVADDPNNYLFCRVRKNGVAAPSATSQLSTRALEGIFEATHRSGGSGSGSSGGSGTMEVQLQASGGGLVQAGGSLRLSCTASGRTGTIYSMAWFRQAPGKEREFLATVGWSSGITYYMDSVKGRFTISRDNAKNSAYLQMNSLKPEDTAVYYCTATRAYSVGYDYWGQGTQVTVSHPKKKRKV
In experiment [2], B2 displayed a Cre reporter expression (share of transfected cells), 25 uM caffeine for 5 hours (% of transfected cells) of 30; a Cre reporter turned on (share of transfected cells), caffeine at least 50 uM, induction at least 5 hours (% transfected cells) of 38; a Cre reporter turned on (share of transfected cells), caffeine induction, 48 hours (% transfected cells) of more than 80.

B3: CD373 PV1-RfxCas13d-N559-NLS-BGHpA (protein)
chain: MIEKKKSFAKGMGVKSTLVSGSKVYMTTFAEGSDARLEKIVEGDSIRSVNEGEAFSAEMADKNAGYKIGNAKFSHPKGYAVVANNPLYTGPVQQDMLGLKETLEKRYFGESADGNDNICIQVIHNILDIEKILAEYITNAAYAVNNISGLDKDIIGFGKFSTVYTYDEFKDPEHHRAAFNNNDKLINAIKAQYDEFDNFLDNPRLGYFGQAFFSKEGRNYIINYGNECYDILALLSGLRHWVVHNNEEESRISRTWLYNLDKNLDNEYISTLNYLYDRITNELTNSFSKNSAANVNYIAETLGINPAEFAEQYFRFSIMKEQKNLGFNITKLREVMLDRKDMSEIRKNHKVFDSIRTKVYTMMDFVIYRYYIEEDAKVAAANKSLPDNEKSLSEKDIFVINLRGSFNDDQKDALYYDEANRIWRKLENIMHNIKEFRGNKTREYKKKDAPRLPRILPAGRDVSAFSKLMYALTMFLDGKEINDLLTTLINKFDNIQSFLKVMPLIGVNAKFVEEYAFFKDSAKIADELRLIKSFARMGEPIADARRAMYIDAIRILGTNLPKKKRKV
Regarding B3, the gRNA induced mCherry knockdown efficiency, no CID domain in experiment [3] is less than 80%.

B4: CD399 PV1-RfxCas13d-N263-L1-GID-NLS-BGHpA (protein)
chain: MIEKKKSFAKGMGVKSTLVSGSKVYMTTFAEGSDARLEKIVEGDSIRSVNEGEAFSAEMADKNAGYKIGNAKFSHPKGYAVVANNPLYTGPVQQDMLGLKETLEKRYFGESADGNDNICIQVIHNILDIEKILAEYITNAAYAVNNISGLDKDIIGFGKFSTVYTYDEFKDPEHHRAAFNNNDKLINAIKAQYDEFDNFLDNPRLGYFGQAFFSKEGRNYIINYGNECYDILALLSGLRHWVVHNNEEESRISRTWLYNLDKNLSGGSGSGSSGGSGTMAASDEVNLIESRTVVPLNTWVLISNFKVAYNILRRPDGTFNRHLAEYLDRKVTANANPVDGVFSFDVLIDRRINLLSRVYRPAYADQEQPPSILDLEKPVDGDIVPVILFFHGGSFAHSSANSAIYDTLCRRLVGLCKCVVVSVNYRRAPENPYPCAYDDGWIALNWVNSRSWLKSKKDSKVHIFLAGDSSGGNIAHNVALRAGESGIDVLGNILLNPMFGGNERTESEKSLDGKYFVTVRDRDWYWKAFLPEGEDREHPACNPFSPRGKSLEGVSFPKSLVVVAGLDLIRDWQLAYAEGLKKAGQEVKLMHLEKATVGFYLLPNNNHFHNVMDEISAFVNAECPKKKRKV
As for B4, in experiment [4], the mCherry knockdown efficiency with GIB CID domains was more than 60%.

B5: CD243 PV1-RfxCas13d-N559-L1-GID-NLS-BGHpA (protein)
chain: MIEKKKSFAKGMGVKSTLVSGSKVYMTTFAEGSDARLEKIVEGDSIRSVNEGEAFSAEMADKNAGYKIGNAKFSHPKGYAVVANNPLYTGPVQQDMLGLKETLEKRYFGESADGNDNICIQVIHNILDIEKILAEYITNAAYAVNNISGLDKDIIGFGKFSTVYTYDEFKDPEHHRAAFNNNDKLINAIKAQYDEFDNFLDNPRLGYFGQAFFSKEGRNYIINYGNECYDILALLSGLRHWVVHNNEEESRISRTWLYNLDKNLDNEYISTLNYLYDRITNELTNSFSKNSAANVNYIAETLGINPAEFAEQYFRFSIMKEQKNLGFNITKLREVMLDRKDMSEIRKNHKVFDSIRTKVYTMMDFVIYRYYIEEDAKVAAANKSLPDNEKSLSEKDIFVINLRGSFNDDQKDALYYDEANRIWRKLENIMHNIKEFRGNKTREYKKKDAPRLPRILPAGRDVSAFSKLMYALTMFLDGKEINDLLTTLINKFDNIQSFLKVMPLIGVNAKFVEEYAFFKDSAKIADELRLIKSFARMGEPIADARRAMYIDAIRILGTNLSGGSGSGSSGGSGTMAASDEVNLIESRTVVPLNTWVLISNFKVAYNILRRPDGTFNRHLAEYLDRKVTANANPVDGVFSFDVLIDRRINLLSRVYRPAYADQEQPPSILDLEKPVDGDIVPVILFFHGGSFAHSSANSAIYDTLCRRLVGLCKCVVVSVNYRRAPENPYPCAYDDGWIALNWVNSRSWLKSKKDSKVHIFLAGDSSGGNIAHNVALRAGESGIDVLGNILLNPMFGGNERTESEKSLDGKYFVTVRDRDWYWKAFLPEGEDREHPACNPFSPRGKSLEGVSFPKSLVVVAGLDLIRDWQLAYAEGLKKAGQEVKLMHLEKATVGFYLLPNNNHFHNVMDEISAFVNAECPKKKRKV
For B5, in experiment [5], the mCherry knockdown with gRNA and gibberellin (drug-induced) was more than 75%; the mCherry knockdown with gRNA, without gibberellin (basal) was 10 to 20%.
